Measured values reported in US20200390859A1 (NGM BIOPHARMACEUTICALS, published 2020).

Biological target: mouse FGFR4/β-klotho complex co-expressed in rat L6 myoblast cells (mouse, UniProt Q03142 17-799; Q99N32 1-1043)
Assay: cell-based or functional assay

Chain of mouse FGFR4/β-klotho complex co-expressed in rat L6 myoblast cells (Q03142 17-799, chain 1 of 2): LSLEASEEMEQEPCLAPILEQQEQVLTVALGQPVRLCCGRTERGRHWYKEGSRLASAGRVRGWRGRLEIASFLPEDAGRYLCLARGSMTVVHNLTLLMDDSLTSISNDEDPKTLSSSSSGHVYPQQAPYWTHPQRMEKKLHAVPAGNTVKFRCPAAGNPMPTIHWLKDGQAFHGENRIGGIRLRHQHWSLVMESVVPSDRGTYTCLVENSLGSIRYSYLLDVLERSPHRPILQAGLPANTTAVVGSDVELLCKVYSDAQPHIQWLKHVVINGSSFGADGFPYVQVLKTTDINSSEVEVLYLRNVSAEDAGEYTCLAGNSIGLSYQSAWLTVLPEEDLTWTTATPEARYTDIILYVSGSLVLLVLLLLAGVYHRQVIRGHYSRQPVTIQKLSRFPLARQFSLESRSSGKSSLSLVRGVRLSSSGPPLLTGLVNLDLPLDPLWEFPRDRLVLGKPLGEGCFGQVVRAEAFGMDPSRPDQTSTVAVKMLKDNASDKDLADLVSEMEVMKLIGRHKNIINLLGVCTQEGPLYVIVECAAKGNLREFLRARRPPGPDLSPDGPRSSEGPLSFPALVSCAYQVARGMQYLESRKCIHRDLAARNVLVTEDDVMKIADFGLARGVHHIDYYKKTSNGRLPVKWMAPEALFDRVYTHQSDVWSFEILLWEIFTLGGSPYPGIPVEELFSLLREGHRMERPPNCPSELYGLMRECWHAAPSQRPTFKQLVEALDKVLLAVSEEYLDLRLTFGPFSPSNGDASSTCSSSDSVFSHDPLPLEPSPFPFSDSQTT
Chain of mouse FGFR4/β-klotho complex co-expressed in rat L6 myoblast cells (Q99N32 whole entry, chain 2 of 2): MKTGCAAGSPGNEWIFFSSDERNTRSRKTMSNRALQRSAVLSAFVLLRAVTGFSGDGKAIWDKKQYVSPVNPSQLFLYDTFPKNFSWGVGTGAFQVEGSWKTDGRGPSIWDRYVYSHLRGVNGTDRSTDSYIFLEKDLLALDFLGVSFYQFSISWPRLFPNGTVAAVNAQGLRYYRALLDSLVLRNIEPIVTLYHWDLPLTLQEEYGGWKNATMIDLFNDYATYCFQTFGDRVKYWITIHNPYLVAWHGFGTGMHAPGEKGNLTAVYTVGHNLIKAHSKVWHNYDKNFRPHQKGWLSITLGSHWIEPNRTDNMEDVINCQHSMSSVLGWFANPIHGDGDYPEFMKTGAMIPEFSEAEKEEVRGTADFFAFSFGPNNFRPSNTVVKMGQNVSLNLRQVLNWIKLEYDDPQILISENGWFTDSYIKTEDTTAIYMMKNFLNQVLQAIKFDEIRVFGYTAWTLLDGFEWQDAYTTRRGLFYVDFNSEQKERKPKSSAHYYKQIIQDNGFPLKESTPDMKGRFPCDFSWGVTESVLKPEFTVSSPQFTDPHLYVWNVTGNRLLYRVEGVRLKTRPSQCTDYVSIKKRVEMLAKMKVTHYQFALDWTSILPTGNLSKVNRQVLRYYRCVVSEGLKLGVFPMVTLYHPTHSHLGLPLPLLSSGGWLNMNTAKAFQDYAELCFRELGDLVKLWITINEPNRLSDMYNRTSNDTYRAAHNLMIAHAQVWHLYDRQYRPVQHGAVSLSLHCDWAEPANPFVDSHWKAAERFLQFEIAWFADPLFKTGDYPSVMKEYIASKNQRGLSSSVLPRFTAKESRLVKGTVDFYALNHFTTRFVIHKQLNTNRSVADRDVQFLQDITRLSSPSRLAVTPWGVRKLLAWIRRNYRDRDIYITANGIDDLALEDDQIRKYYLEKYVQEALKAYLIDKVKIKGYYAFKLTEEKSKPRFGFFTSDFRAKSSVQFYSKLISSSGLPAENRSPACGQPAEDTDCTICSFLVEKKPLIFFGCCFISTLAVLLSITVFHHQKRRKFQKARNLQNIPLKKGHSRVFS

EC50 (pM), ELK1 luciferase reporter in L6 cells transfected with mouse FGFR4 and β-klotho: 38.3 pM | Emax (fold potentiation), ELK1 luciferase reporter in L6 cells transfected with mouse FGFR4 and β-klotho: 1.85 fold potentiation
B1: M70 (FGF19 variant) (ligand)
chain: MRDSSPLVHYGWGDPIRLRHLYTSGPHGLSSCFLRIRADGVVDCARGQSAHSLLEIKAVALRTVAIKGVHSVRYLCMGADGKMQGLLQYSEEDCAFEEEIRPDGYNVYRSEKHRLPVSLSSAKQRQLYKNRGFLPLSHFLPMLPMVPEEPEDLRGHLESDMFSSPLETDSMDPFGLVTGLEAVRSPSFEK
